# Assay results published in patent US6348573B1, “Compositions and methods for identifying apoptosis signaling pathway inhibitors and activators” (The Regents of the University of Michigan, priority 1998, dated 2002).
# T1: FADD (Fas-associated death domain protein), expressed in 293T cells (human, UniProt Q13158 1-208)
# T1 construct: also called MORT-1; pcDNA3-FADD-AU1
# T1 sequence (looked up): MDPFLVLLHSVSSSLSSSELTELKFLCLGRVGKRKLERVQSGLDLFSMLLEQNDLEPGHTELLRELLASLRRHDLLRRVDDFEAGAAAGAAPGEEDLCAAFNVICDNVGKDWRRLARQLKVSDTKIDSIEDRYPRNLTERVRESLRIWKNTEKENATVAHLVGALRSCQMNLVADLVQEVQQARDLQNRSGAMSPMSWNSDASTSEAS
# Target: T1, FADD (Fas-associated death domain …)
# Assay: co-immunoprecipitation from co-transfected 293T cells (data not shown)
binder,measurement,value
"human ARC (Apoptosis Repressor with CARD domain), C-terminally Flag- or HA-tagged (other, Entire open reading frame expressed in 293T cells; The two tagged constructs are merged here; also called ARC-Flag; ARC-HA; not shown: C-terminal FLAG or HA tag) MGNAQERPSETIDRERKRLVETLQADSGLLLDALLARGVLTGPEYEALDALPDAERRVRRLLLLVQGKGEAACQELLRCAQRTAGAPDPAWDWQHVGPGYRDRSYDPPCPGHWTPEAPGSGTTCPGLPRASDPDEAGGPEGSEAVQSGTPEEPEPELEAEASKEAEPEPEPEPELEPEAEAEPEPELEPEPDPEPEPDFEERDESEDS",binding result,no binding
